Where a chain is given by its changes, count along the chain named. Names may count otherwise.
B1: 63BLH (Fab, V domains shown)
VH: EVQLVQSGAEVKKPGASVKVSCKASGYTFTSYDMHWVRQAPGQGLEWMGRIDPQSGGIKYAQKFQGRATLTVDTSTSTAYMELSRLRSDDTAVYYCARWDYGGYFDVWGQGTLVTVSS
VL: DIQMTQSPSSLSASVGDRVTITCRASQDIYNYLNWYQQKPGKAVKLLIYYTSRLETGVPSRFSGSGSGTDYTLTISSLQPEDFATYFCQQGDTLPWTFGQGTKLEIK
notes: also called 15BLM Fab; 015BLM Fab
B2: 59BLH (Fab, V domains shown)
VH: B1 VH with K59R
VL: B1 VL with R53V
notes: also called 11BLM Fab
B3: 54BLH (Fab, V domains shown)
VH: B1 VH with K59R, Y104Q
VL: B1 VL with R53I
notes: also called 06BLM Fab
B4: 55BLH (Fab, V domains shown)
VH: B1 VH with K59R
VL: B1 VL with N31S, R53N
notes: also called 07BLM Fab
B5: 60BLH (Fab, V domains shown)
VH: B1 VH with I58V
VL: B1 VL with R53V, T93E
notes: also called 12BLM Fab
B6: 67BLH (Fab, V domains shown)
VH: B1 VH with W99Y, Y101H
VL: B1 VL with R53Y
notes: also called 19BLM Fab
B7: VH W33Y/VL R53Y (91BJM) (Fab, V domains shown)
VH: B1 VH with D33Y
VL: DIQMTQSPSSLSASVGDRVTITCRASQDITNYLNWYQQKPGKAVKLLIYYTSYLHSGVPSRFSGSGSGTDYTLTISSLQPEDFATYFCQQGDTLPWTFGQGTKLEIKR
notes: also called VH33/VL53
B8: VH W33Y/VL T93Y (92BJM) (Fab, V domains shown)
VH: B1 VH with D33Y
VL: B7 VL with Y53R, T93Y
notes: also called VH33/VL93
B9: VH W33Y/VL T30Y (90BJM) (Fab, V domains shown)
VH: B1 VH with D33Y
VL: B7 VL with T30Y, Y53R
notes: also called VH33/VL30

biological target: T1, human LAP-TGFB1 Fc fusion (human); experiment: SPR pH 6.0, antigen captured on Fab 54BLH
T1 construct: also called human LAP-TGFβ1-Fc; human LAP-TGFβ-Fc isoform 1
T1 sequence (chain, as listed by the source limits assumed): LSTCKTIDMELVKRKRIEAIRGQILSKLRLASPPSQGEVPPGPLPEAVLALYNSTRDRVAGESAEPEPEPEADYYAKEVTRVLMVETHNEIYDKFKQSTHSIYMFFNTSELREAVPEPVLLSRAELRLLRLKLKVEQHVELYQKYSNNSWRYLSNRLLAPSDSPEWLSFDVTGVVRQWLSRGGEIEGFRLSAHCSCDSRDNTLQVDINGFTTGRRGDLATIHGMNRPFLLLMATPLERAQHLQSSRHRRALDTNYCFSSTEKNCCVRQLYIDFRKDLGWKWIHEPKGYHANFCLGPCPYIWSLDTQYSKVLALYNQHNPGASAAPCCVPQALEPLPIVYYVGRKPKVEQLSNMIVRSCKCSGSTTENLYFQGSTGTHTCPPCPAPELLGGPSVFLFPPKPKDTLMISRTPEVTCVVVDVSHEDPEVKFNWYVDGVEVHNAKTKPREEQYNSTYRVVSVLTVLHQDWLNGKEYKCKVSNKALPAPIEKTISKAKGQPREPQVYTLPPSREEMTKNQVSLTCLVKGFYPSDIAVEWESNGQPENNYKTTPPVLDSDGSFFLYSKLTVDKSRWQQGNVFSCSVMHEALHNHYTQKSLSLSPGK
Outline: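 Human LAP-TGFβ1-Fc (~15-25 RU) captured on a low-density 54BLH Fab surface in HBS-EP+, leaving one epitope free for monovalent kinetics. Fabs/mAbs injected in 1:3 series, 6–0.07 nM or 60–0.74 nM plus 0 nM. Double-referenced; rate constants from 1:1 binding fit.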

| Kd | koff | kon | Binder |
| --- | --- | --- | --- |
| 1.06 nM | 0.00796 s⁻¹ | 7.51e+06 M⁻¹ s⁻¹ | B1 |
| 0.179 nM | 0.00126 s⁻¹ | 7.08e+06 M⁻¹ s⁻¹ | B2 |
| 0.0217 nM | 0.000101 s⁻¹ | 4.65e+06 M⁻¹ s⁻¹ | B3 |
| 0.335 nM | 0.00248 s⁻¹ | 7.39e+06 M⁻¹ s⁻¹ | B4 |
| 0.296 nM | 0.00167 s⁻¹ | 5.65e+06 M⁻¹ s⁻¹ | B5 |
| 18.8 nM | 0.046 s⁻¹ | 2.44e+06 M⁻¹ s⁻¹ | B6 |

biological target: T2, human LAP-TGFB2 Fc fusion (human); experiment: SPR pH 7.4
T2 construct: also called human LAP-TGFβ2; LAP-TGFβ isoform 2
T2 sequence (chain, as listed by the source limits assumed): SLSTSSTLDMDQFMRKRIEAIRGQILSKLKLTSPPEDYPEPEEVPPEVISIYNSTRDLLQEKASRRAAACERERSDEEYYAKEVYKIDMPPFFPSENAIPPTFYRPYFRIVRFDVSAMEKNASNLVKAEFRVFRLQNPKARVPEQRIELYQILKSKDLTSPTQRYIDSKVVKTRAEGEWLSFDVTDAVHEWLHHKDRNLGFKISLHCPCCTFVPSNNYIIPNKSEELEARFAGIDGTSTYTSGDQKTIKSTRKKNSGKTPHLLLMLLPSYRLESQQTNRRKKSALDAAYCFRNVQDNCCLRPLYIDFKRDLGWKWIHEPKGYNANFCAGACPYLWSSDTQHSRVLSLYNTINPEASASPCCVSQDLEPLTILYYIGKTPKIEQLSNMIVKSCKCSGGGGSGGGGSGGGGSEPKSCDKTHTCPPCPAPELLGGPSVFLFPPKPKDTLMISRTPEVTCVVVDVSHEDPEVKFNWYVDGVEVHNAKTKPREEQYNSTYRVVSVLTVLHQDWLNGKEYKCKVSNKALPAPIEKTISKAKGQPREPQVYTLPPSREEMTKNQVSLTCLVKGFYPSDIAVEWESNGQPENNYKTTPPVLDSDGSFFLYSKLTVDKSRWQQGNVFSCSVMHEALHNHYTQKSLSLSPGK

| binding result | Binder |
| --- | --- |
| no binding (tested: 1000 nM Fab) | B1 |
| no binding (tested: 1000 nM Fab) | B2 |
| no binding (tested: 1000 nM Fab) | B3 |
| no binding (tested: 1000 nM Fab) | B4 |
| no binding (tested: 1000 nM Fab) | B5 |
| no binding (tested: 1000 nM Fab) | B6 |

biological target: T3, human LAP-TGFB3 Fc fusion (human); experiment: SPR pH 7.4
T3 construct: also called human LAP-TGFβ3; LAP-TGFβ isoform 3
T3 sequence (chain, as listed by the source limits assumed): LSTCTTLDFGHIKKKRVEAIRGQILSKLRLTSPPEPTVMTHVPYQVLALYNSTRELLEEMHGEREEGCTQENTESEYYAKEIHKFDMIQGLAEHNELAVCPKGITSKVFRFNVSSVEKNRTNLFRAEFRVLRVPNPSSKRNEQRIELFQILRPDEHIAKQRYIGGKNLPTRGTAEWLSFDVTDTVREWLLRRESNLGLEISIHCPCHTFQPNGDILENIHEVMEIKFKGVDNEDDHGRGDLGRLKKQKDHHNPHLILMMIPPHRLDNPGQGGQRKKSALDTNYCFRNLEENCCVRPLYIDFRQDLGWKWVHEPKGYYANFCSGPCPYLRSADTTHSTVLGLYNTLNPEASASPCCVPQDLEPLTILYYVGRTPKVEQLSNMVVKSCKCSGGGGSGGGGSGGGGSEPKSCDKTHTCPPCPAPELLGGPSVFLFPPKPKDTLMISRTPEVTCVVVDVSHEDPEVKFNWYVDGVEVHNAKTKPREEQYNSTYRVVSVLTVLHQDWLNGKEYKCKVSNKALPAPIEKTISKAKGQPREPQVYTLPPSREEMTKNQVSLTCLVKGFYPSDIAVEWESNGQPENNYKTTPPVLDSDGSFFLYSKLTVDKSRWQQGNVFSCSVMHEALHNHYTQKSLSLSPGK

| binding result | Binder |
| --- | --- |
| no binding (tested: 1000 nM Fab) | B1 |
| no binding (tested: 1000 nM Fab) | B2 |
| no binding (tested: 1000 nM Fab) | B3 |
| no binding (tested: 1000 nM Fab) | B4 |
| no binding (tested: 1000 nM Fab) | B5 |
| no binding (tested: 1000 nM Fab) | B6 |

biological target: T1, human LAP-TGFB1 Fc fusion; experiment: SPR pH 7.4, antigen-Fc captured, Fab analyte

| Fold improvement in KD | Kd | koff | kon | Binder |
| --- | --- | --- | --- | --- |
| 197 fold | 0.297 nM | 0.00198 s⁻¹ | 6.79e+06 M⁻¹ s⁻¹ | B1 |
| 887 fold | 0.066 nM | 0.00047 s⁻¹ | 7.1e+06 M⁻¹ s⁻¹ | B2 |
| 14600 fold | 0.004 nM | 2.07e-05 s⁻¹ | 4.96e+06 M⁻¹ s⁻¹ | B3 |
| 992 fold | 0.059 nM | 0.000528 s⁻¹ | 9.08e+06 M⁻¹ s⁻¹ | B4 |
| 2440 fold | 0.024 nM | 0.000186 s⁻¹ | 7.91e+06 M⁻¹ s⁻¹ | B5 |
| 61 fold | 0.961 nM | 0.00476 s⁻¹ | 4.95e+06 M⁻¹ s⁻¹ | B6 |

biological target: T1, human LAP-TGFB1 Fc fusion; experiment: SPR pH 6.0, antigen-Fc captured, Fab analyte
Method: A Series S CM4 sensor chip (Cytiva, catalog BR100534) was immobilized with an anti-human Fc capture antibody following the kit protocol (Cytiva, catalog BR100839) on a Biacore T200 instrument with 1× HBS-EP+ (Teknova, catalog H8022). […] The binding data were double referenced by subtraction of signal from a reference (capture surface only) flow cell and the 0 nM Fab injection. Binding rate constants were determined by fitting the data with a 1:1 binding model (Cytiva Biacore T200 Evaluation software 3.0).

| Kd | koff | kon | Binder |
| --- | --- | --- | --- |
| 0.369 nM | 0.00277 s⁻¹ | 7.51e+06 M⁻¹ s⁻¹ | B1 |
| 0.049 nM | 0.000543 s⁻¹ | 1.11e+07 M⁻¹ s⁻¹ | B2 |
| 0.006 nM | 4.73e-05 s⁻¹ | 7.56e+06 M⁻¹ s⁻¹ | B3 |
| 0.105 nM | 0.000757 s⁻¹ | 7.17e+06 M⁻¹ s⁻¹ | B4 |
| 0.067 nM | 0.000481 s⁻¹ | 7.23e+06 M⁻¹ s⁻¹ | B5 |
| 1.59 nM | 0.0122 s⁻¹ | 7.63e+06 M⁻¹ s⁻¹ | B6 |

biological target: T1, human LAP-TGFB1 Fc fusion; experiment: SPR, antigen-Fc captured, Fab analyte

| Fold improvement in KD | Kd | koff | kon | Binder |
| --- | --- | --- | --- | --- |
| 7 fold | 11.8 nM | 0.0154 s⁻¹ | 910000 M⁻¹ s⁻¹ | B7 |
| 4 fold | 20.6 nM | 0.0134 s⁻¹ | 650000 M⁻¹ s⁻¹ | B8 |
| 20 fold | 4 nM | 0.0075 s⁻¹ | 1.89e+06 M⁻¹ s⁻¹ | B9 |

biological target: T2, human LAP-TGFB2 Fc fusion; experiment: SPR
Method: (§1) A Series S CM4 sensor chip (GE Healthcare, catalog BR100534) was immobilized with an anti-human Fc capture antibody following the kit protocol (GE Healthcare, catalog BR100839) on a Biacore T200 instrument with 1× HBS-EP+ (Teknova, catalog H8022). […] Binding specificity between human LAP-TGFβ isoforms 2 and 3 and the tyrosine scanning double mutants were performed in 1× HEPES-buffered saline with EDTA and surfactant (HBS)-EP)+with 0.1 mg/mL BSA at 25° C. […] The binding data were double referenced by subtraction of signal from a reference (capture surface only) flow cell and the negative control 0 nM Fab injection. Binding rate constants were determined by fitting the data with a 1:1 binding model (GE Healthcare Biacore T200 Evaluation software 3.0).

| binding result | Binder |
| --- | --- |
| no binding (tested: 1000 nM Fab) | B7 |
| no binding (tested: 1000 nM Fab) | B8 |
| no binding (tested: 1000 nM Fab) | B9 |

biological target: T3, human LAP-TGFB3 Fc fusion; experiment: SPR
Method: as §1

| binding result | Binder |
| --- | --- |
| no binding (tested: 1000 nM Fab) | B7 |
| no binding (tested: 1000 nM Fab) | B8 |
| no binding (tested: 1000 nM Fab) | B9 |

biological target: T1, human LAP-TGFB1 Fc fusion; experiment: SPR pH 7.4, antigen-Fc captured, Fab analyte; remark: another data set of the same source

| Kd | koff | kon | Binder |
| --- | --- | --- | --- |
| 0.297 nM | 0.00198 s⁻¹ | 6.79e+06 M⁻¹ s⁻¹ | B1 |
| 0.066 nM | 0.00047 s⁻¹ | 7.1e+06 M⁻¹ s⁻¹ | B2 |
| 0.004 nM | 2.07e-05 s⁻¹ | 4.96e+06 M⁻¹ s⁻¹ | B3 |
| 0.059 nM | 0.000528 s⁻¹ | 9.08e+06 M⁻¹ s⁻¹ | B4 |
| 0.024 nM | 0.000186 s⁻¹ | 7.91e+06 M⁻¹ s⁻¹ | B5 |
| 0.961 nM | 0.00476 s⁻¹ | 4.95e+06 M⁻¹ s⁻¹ | B6 |

biological target: T1, human LAP-TGFB1 Fc fusion; experiment: SPR pH 7.4, antigen captured on Fab 54BLH
From the text: A Series S C1 sensor chip (Cytiva, catalog BR100535) was immobilized with low densities of high affinity Fab 54BLH on a Biacore T200 instrument with 1×HBS-EP+(Teknova, catalog H8022). This surface served as a monovalent capture surface for a low-density layer of heterodimer human LAP-TGFβ1 complex leaving the second binding site exposed for monovalent kinetic binding analysis with both mAbs and Fabs. Immobilized flow cell 1 served as the reference and flow cells 2, 3 and 4 were used to evaluate the binding interaction between human LAP-TGFβ1 and yeast display mutant mAbs and Fabs.
Approximately 15-25 RU of human LAP-TGFβ1-Fc was captured to the Fab capture surface followed by injection of 1:3 serially diluted Fabs and mAbs from 6 nM to 0.07 nM (Fabs: 54BLH, 55BLH, 60BLH, 63BLH, 64BLH-mAbs: 69BLH, 70BLH) and 1:3 serially diluted Fab and mAbs from 60 nM to 0.74 nM (Fabs: 59BLH, 66BLH, 67BLH—mAbs: 74BLH, 75BLH, 78BLH, 79BLH, 81BLH, 82BLH) including 0 nM. The binding data was double referenced by subtraction of signal from a reference flow cell and the 0 nM injections for evaluation of Fabs and mAbs respectively. Binding rate constants were calculated/determined by fitting the data with a 1:1 binding model (Cytiva Biacore T200 Evaluation software 3.0).

| Kd | koff | kon | Binder |
| --- | --- | --- | --- |
| 0.355 nM | 0.00341 s⁻¹ | 9.61e+06 M⁻¹ s⁻¹ | B1 |
| 0.044 nM | 0.000575 s⁻¹ | 1.31e+07 M⁻¹ s⁻¹ | B2 |
| 0.00477 nM | 3.34e-05 s⁻¹ | 7.03e+06 M⁻¹ s⁻¹ | B3 |
| 0.125 nM | 0.00109 s⁻¹ | 8.75e+06 M⁻¹ s⁻¹ | B4 |
| 0.036 nM | 0.000348 s⁻¹ | 9.65e+06 M⁻¹ s⁻¹ | B5 |
| 2.36 nM | 0.0155 s⁻¹ | 6.69e+06 M⁻¹ s⁻¹ | B6 |

biological target: T1, human LAP-TGFB1 Fc fusion; experiment: SPR

| Fold change in KD from pH 7.4 to pH 6 | Binder |
| --- | --- |
| 1.2 fold | B1 |
| 0.7 fold | B2 |
| 1.5 fold | B3 |
| 1.8 fold | B4 |
| 2.8 fold | B5 |
| 1.7 fold | B6 |

Reference: patent US20230272056A1 (Merck Sharp & Dohme, published 2023)
